Measurements taken from patent US20250361295A1 (ANTENGENE BIOLOGICS, published 2025).

What was measured:
human LILRA1 = target: T1, human LILRA1 (human, UniProt O75019 17-489); assay: FACS, 293F-hLILRA1 cells
T1 construct: whole, on cells; also called hLILRA1

human LILRA2 = target: T2, human LILRA2 (human, UniProt Q8N149 24-483); assay: FACS, 293F-hLILRA2 cells
T2 construct: whole, on cells; also called hLILRA2

human LILRA3 = target: T3, human LILRA3 (human, UniProt Q8N6C8 24-439); assay: FACS, 293F-hLILRA3 cells
T3 construct: whole, on cells; also called hLILRA3
T3 sequence (Q8N6C8 24-439): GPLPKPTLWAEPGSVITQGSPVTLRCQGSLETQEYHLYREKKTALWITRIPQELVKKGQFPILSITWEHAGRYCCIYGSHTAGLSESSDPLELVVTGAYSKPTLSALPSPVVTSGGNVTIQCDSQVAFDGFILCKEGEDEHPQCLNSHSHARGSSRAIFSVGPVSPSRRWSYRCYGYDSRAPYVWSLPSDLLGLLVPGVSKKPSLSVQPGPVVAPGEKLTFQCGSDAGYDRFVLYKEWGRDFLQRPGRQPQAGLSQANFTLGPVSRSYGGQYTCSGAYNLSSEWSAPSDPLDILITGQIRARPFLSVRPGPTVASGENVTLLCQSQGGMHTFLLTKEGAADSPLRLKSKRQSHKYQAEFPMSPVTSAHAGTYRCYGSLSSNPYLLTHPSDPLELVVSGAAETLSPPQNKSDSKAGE

human LILRA4 = target: T4, human LILRA4 (human, UniProt P59901 24-499); assay: FACS, 293F-hLILRA4 cells
T4 construct: whole, on cells; also called hLILRA4
T4 sequence (P59901 24-499): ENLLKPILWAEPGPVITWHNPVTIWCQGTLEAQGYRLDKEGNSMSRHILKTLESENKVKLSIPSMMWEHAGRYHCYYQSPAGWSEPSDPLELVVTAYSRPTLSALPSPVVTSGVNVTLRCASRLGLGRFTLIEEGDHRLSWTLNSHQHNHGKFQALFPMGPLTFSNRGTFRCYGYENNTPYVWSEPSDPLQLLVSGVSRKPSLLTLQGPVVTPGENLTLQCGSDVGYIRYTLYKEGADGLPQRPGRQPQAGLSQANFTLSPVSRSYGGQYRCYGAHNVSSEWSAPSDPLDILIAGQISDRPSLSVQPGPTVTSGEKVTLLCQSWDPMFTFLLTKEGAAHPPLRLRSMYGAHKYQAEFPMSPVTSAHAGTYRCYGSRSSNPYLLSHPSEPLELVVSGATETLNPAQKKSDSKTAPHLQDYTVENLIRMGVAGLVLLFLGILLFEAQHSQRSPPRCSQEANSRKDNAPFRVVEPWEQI

human LILRA5 = target: T5, human LILRA5 (human, UniProt A6NI73 42-299); assay: FACS, 293F-hLILRA5 cells
T5 construct: whole, on cells; also called hLILRA5
T5 sequence (A6NI73 42-299): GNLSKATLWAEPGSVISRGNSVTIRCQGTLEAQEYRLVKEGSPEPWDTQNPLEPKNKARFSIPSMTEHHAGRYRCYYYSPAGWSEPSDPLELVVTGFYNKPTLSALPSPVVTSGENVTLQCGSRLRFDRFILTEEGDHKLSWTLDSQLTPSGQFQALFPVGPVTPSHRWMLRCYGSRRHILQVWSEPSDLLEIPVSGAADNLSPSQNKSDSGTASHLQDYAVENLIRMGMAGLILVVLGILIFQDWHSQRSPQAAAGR

human LILRB1 = target: T6, human LILRB1 (human, UniProt Q8NHL6 24-650); assay: FACS, 293F-hLILRB1 cells
T6 construct: whole, on cells; also called hLILRB1
T6 sequence (Q8NHL6 24-650): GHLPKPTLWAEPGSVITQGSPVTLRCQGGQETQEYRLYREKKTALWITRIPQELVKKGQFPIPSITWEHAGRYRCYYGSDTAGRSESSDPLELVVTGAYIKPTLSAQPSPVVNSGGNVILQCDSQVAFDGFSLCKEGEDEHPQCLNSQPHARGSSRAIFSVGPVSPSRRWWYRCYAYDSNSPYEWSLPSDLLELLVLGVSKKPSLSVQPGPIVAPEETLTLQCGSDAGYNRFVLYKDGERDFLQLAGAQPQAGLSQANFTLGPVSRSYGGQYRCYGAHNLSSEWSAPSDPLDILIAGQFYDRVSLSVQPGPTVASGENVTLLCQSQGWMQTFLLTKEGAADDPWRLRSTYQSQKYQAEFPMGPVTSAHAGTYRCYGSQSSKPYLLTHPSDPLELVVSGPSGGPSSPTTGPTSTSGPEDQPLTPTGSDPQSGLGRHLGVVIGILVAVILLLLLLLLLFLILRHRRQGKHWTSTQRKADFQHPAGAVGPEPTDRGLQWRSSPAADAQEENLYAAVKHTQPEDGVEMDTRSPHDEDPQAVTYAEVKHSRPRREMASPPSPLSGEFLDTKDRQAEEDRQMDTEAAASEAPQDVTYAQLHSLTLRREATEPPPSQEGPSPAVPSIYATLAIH

human LILRB2 = target: T7, human LILRB2 (human, UniProt Q8N423 22-597); assay: FACS, 293F-hLILRB2 cells
T7 construct: whole, on cells; also called hLILRB2
T7 sequence (Q8N423 22-597): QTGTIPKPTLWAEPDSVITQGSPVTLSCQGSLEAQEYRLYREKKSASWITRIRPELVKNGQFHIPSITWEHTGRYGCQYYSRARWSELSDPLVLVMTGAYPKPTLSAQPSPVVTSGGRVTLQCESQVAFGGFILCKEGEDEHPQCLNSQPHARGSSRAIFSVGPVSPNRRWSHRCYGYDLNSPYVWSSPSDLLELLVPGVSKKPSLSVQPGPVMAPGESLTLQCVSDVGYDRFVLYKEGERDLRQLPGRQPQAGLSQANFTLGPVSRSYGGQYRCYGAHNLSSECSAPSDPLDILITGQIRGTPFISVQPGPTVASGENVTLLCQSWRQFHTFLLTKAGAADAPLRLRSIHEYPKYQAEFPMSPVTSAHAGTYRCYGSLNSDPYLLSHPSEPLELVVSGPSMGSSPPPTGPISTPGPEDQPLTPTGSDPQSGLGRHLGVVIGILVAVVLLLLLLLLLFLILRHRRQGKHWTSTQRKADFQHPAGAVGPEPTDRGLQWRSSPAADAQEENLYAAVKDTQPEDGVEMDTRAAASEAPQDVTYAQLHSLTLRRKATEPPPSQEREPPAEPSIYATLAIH

human LILRB3 [1] = target: T8, human LILRB3 (human, UniProt O75022 24-631); assay: FACS, 293F-hLILRB3 cells
T8 construct: whole, on cells; also called hLILRB3
T8 sequence (O75022 24-631): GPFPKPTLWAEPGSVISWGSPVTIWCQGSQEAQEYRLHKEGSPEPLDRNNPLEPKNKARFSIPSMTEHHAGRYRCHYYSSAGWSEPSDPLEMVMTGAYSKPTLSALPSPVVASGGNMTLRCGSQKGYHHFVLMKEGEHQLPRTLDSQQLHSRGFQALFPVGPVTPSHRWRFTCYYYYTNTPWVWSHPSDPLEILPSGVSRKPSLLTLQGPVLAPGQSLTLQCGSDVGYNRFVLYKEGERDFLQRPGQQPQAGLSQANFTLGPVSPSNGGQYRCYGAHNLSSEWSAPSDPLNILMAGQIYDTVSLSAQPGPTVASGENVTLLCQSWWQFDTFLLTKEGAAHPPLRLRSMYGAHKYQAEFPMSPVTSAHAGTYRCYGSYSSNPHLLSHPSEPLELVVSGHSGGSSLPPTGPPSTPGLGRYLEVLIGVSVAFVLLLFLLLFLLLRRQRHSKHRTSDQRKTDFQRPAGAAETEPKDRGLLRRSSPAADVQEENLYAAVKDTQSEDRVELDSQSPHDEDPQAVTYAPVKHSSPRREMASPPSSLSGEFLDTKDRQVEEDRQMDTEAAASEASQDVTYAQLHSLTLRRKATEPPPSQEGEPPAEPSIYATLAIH

human LILRB4 [2] = target: T9, human LILRB4 (human, UniProt Q8NHJ6 22-448); assay: FACS, 293F-hLILRB4 cells
T9 construct: whole, on cells; also called hLILRB4
Procedure: The subcloning plates were screened by protein or cell-based ELISA, and the subclones with good binding ability were expanded to 24-wells for confirmation tests. The specificity and cross-reactivity of these subclones were confirmed with FACS analysis. […] Fluorescent dye-conjugated secondary antibody was used to detect the binding of the primary antibody with the cells. Median fluorescence intensity (MFI) was measured by FACS analysis. […]

human LILRB5 = target: T10, human LILRB5 (human, UniProt O75023 24-590); assay: FACS, 293F-hLILRB5 cells
T10 construct: whole, on cells; also called hLILRB5
T10 sequence (O75023 24-590): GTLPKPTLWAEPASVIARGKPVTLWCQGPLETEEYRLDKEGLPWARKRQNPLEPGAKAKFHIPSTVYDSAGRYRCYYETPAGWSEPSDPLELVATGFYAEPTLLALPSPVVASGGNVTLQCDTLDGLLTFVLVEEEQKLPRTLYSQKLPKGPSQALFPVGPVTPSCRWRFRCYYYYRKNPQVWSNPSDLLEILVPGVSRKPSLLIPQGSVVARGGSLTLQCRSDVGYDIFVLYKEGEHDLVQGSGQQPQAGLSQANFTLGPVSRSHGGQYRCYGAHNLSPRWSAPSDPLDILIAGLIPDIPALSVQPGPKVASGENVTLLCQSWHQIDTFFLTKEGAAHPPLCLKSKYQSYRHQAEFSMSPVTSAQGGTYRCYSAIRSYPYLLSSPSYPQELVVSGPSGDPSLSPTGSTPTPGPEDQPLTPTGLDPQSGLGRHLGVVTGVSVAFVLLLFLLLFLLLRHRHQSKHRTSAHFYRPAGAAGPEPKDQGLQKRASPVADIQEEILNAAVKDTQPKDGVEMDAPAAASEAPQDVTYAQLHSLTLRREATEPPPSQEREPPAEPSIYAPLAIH

human LILRA6 protein = target: T11, human LILRA6 protein (human, UniProt Q6PI73 24-447, limits assumed); assay: ELISA, LILRA6 protein
T11 construct: protein for ELISA; construct not described; also called hLILRA6 protein
T11 sequence (Q6PI73 24-447 limits assumed): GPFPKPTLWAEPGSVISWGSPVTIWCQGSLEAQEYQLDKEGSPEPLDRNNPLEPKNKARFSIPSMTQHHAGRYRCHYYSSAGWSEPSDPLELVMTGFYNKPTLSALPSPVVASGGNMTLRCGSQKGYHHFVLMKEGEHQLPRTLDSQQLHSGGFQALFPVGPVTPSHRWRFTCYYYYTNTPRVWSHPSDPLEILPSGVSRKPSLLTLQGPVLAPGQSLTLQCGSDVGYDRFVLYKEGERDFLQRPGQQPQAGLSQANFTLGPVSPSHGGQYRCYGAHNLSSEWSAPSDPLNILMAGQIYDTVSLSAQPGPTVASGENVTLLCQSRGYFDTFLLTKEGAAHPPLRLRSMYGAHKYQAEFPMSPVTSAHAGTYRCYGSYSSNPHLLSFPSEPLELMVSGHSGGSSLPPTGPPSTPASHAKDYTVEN

human LILRB4 [3] = target: T9, human LILRB4; assay: cell-based or functional assay
human LILRB4 [4] = target: T9, human LILRB4; assay: cell-based or functional assay; remark: listed apart in the source
human LILRB4 [5] = target: T9, human LILRB4; assay: cell-based or functional assay; remark: listed apart in the source
human LILRB3 [6] = target: T8, human LILRB3; assay: FACS, 293F-hLILRB3 cells; remark: listed apart in the source
Procedure: (§1) The protocol for FACS analysis is described as follows: [0438] (a) Cells were harvested by centrifugation at 300 g for 3 mins. […] (b) The cells were washed for 2 times with FACS buffer by centrifuging at 300 g for 3 mins and the supernatant was discarded. [0440] (c) Cell were resuspended and seeded into assay plate (2×10⁵ cells/well) in 50 μl FACS buffer. […] Cells were incubated with antibodies at 4° C. for 1 hour. […] (d) Step (b) was repeated and the cells were resuspended with 100 μl diluted 2nd antibody, incubated at 4° C. for 1 hour in the dark. [0442] (e) Step (b) was repeated and the cells were resuspended with 100 μl FACS buffer. The cells were kept in dark for FACS analysis.

human LILRB4 [7] = target: T9, human LILRB4; assay: FACS, 293F-hLILRB4 cells; remark: listed apart in the source
Procedure: as §1

T1 sequence (O75019 17-489): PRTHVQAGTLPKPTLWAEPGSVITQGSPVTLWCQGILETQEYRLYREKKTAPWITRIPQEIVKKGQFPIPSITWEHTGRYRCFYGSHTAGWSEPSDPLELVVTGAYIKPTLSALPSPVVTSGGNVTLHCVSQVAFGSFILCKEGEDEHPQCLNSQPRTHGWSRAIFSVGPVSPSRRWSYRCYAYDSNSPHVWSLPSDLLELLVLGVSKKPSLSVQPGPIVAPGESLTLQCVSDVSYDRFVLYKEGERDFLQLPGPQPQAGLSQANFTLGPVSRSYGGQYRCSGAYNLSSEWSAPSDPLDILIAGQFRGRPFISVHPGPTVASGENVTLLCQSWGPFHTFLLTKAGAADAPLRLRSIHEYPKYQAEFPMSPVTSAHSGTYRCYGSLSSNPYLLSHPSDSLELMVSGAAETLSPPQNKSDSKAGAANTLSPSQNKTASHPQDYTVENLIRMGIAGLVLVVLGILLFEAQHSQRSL
T2 sequence (Q8N149 24-483): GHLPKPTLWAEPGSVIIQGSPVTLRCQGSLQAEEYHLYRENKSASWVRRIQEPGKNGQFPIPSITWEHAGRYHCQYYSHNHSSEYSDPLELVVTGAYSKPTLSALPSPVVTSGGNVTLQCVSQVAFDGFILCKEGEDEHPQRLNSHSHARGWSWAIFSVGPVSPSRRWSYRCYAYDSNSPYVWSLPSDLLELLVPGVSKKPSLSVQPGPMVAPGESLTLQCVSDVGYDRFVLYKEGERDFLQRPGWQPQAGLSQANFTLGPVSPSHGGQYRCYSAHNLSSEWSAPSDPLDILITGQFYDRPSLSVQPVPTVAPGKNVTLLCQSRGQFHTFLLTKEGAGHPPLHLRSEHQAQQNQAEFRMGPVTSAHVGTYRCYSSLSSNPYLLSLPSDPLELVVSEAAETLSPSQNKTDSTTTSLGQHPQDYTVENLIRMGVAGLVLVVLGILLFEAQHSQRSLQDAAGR

Binder	MFI (human LILRA1)	MFI (human LILRA2)	MFI (human LILRA3)	MFI (human LILRA4)	MFI (human LILRA5)	MFI (human LILRB1)	MFI (human LILRB2)	MFI (human LILRB3 [1])	MFI (human LILRB4 [2])	MFI (human LILRB5)	binding result (human LILRA6 protein)	EC50 (nM), ADCC on THP-1 cells (human LILRB4 [3])	Max cell cytotoxicity (%), ADCC on THP-1 cells (human LILRB4 [3])	ADCP (%) at 133.3 nM, macrophages and MV-4-11 cells (human LILRB4 [4])	FcγR stimulation (TNF-α, pg/mL) (human LILRB4 [5])	Fold change (Compared to isotype) (human LILRB4 [5])	binding result (human LILRB3 [6])	EC50 (human LILRB4 [7])	Max MFI (human LILRB4 [7])
2-H8-C9-F7-E2 (antibody, V domains shown, mouse monoclonal hybridoma antibody) VH: EVQLQQSGAELVKPGASVKLSCKASGYTFTNYWMHWVKQRPGQGLEWIGEINPSNGRTNYNEKFKSKATLTVDKSSSTAYMQLSSLTSEDSAVYYCARGSLTTVVPFDYWGQGTTLTVSS VL: DIQMTQTPSSLSASLGGKVTITCKASQDINNYIAWYQHKPGKGPRLLIHYTSTLQPGIPSRFSGSGSGRDYSFSISNLEPEDIATYFCLQYDILLTFGGGTKLEK	22.6 MFI	19.7 MFI	21.7 MFI	23 MFI	22.6 MFI	25.4 MFI	28.8 MFI	26.7 MFI	1710 MFI	21.6 MFI	–	–	–	–	–	–	–	–	–
4-E6-E4-B12 (antibody, V domains shown, mouse monoclonal hybridoma antibody) VH: EVQLKESGAELVKPGASVKLSCKASGYTFTSHWMHWVKQRPGQGLEWIGEINPSNGRTNYNEKFTSKATLTVDQSSSTAYMQLSSLTSEDSAVYYCARGNLTTVVPFDYWGQGTALTVSS VL: DIVMTQSPSSLSASLGGKVTITCKASQDINKFIAWYQHKPGKGPRLLIHFTSTLQPGIPSRFSGSGSGRDYSFSISNLEPEDIATYFCLQYDLLLTFGGGTKLEIK	24.4 MFI	21.9 MFI	23.7 MFI	23.2 MFI	32.6 MFI	23.6 MFI	58 MFI	27.1 MFI	1530 MFI	21.4 MFI	–	–	–	–	–	–	–	–	–
48-E11-H7-B5 (antibody, V domains shown, mouse monoclonal hybridoma antibody) VH: EVQLVESGGGLVKPGGSLKLSCAASGFTFSSYAMSWVRQTPEKRLEWVASITIGDDTYYPDSVKGRFTISRDHAKNILYLQVSSLRSEDTAMYSCARGVNSYGSSYRYFDVWGAGTTVTVSS VL: DIVMTQSHKFMSTSVGDRVSITCKASQDVSTAVAWYQQKPGQSPKLLIYWASTRHTGVPDRFTGSGSGTDYTLTISSVQAEDLALYYCQQHYSIPFTFGAGTKLEK	25.1 MFI	22.6 MFI	24.1 MFI	24.3 MFI	359 MFI	27.3 MFI	45.8 MFI	26.7 MFI	2760 MFI	18.9 MFI	–	–	–	–	–	–	–	–	–
36-F4-H1-D9 (antibody, V domains shown, mouse monoclonal hybridoma antibody) VH: EVKLLESGGGLVQPGGSLKLSCAASGFDFSRYWMIWVRQAPEKGLEWIGEINPDSSTINYTPSLKDKFIISRDNAKNTLYLQMSKVRSEDTALYYCARPYYRYDVGYFDVWGAGTTVTVSS VL: DIVMTQAPKVLLVSAGDRVTISCKASQSVSNAVVWYQQKPGQSPKLLIFYASNRYTGVPDRFTGSGYGTDFTFSISTVQAEDLAVYFCQQDYSSPWTFGGGTKLEIK	22.1 MFI	16.5 MFI	18.6 MFI	20.7 MFI	20.3 MFI	25.7 MFI	26.5 MFI	23.5 MFI	898 MFI	17 MFI	–	–	–	–	–	–	–	–	–
44-F10-B6-D4 (antibody, V domains shown, mouse monoclonal hybridoma antibody) VH: EVHLVESGGGLVKPGGSLKLSCAASGFTFSSYAMSWVRQTPEKRLEWVATISSGGSYIYYPDSVKGRFTISRDNAKNTLYLQMSSLRSEDTAMYYCARQDWDGGDYYAMDYWGQGTSVTVSS VL: DIVMTQSPSSLAVSAGEKVTMSCKSSQSVLYSSNQKNFLAWYQQKPGQSPKLLIYWASTRESGVPDRFTGSGSGTDFTLTISSVQAEDLAVYYCHQYLSSLTFGAGTKLELK	25.6 MFI	24.8 MFI	22.5 MFI	24.4 MFI	26.8 MFI	38.4 MFI	38.2 MFI	31.6 MFI	84.9 MFI	26.6 MFI	–	–	–	–	–	–	–	–	–
7-B4-C1-C9 (antibody, V domains shown, mouse monoclonal hybridoma antibody) VH: EVQLQQSGTELVKPGASVKLSCKASGYTFTNYWMHWVKQRPGQGLEWIGEINPSNGRTNYNEKFKTKATLTVDKSSSTAYMQLSSLTSEDSAVYYCARSTYYGYDWYFDVWGAGTTVTVSS VL: DIVLTQSPSSMYASLGERVTITCKASQDINSYLSWFQQKPGKSPKTLIYRANRLLDGVPSRFSGGGSGQDYSLTISSLEHEDMGIYYCLQCDEFPHTFGGGTKLEIK	27.5 MFI	21.6 MFI	25.2 MFI	26.2 MFI	28.2 MFI	27.7 MFI	32.2 MFI	26.1 MFI	3950 MFI	17.8 MFI	–	–	–	–	–	–	–	–	–
27-D11-C2-A10 (antibody, V domains shown, mouse monoclonal hybridoma antibody) VH: EVQLVESGGGLVQPGGSRKLSCAASGFTFSVFGVHWVRQAPEKGLEWVAYISSGSNTIHYADTVKGRFTISRDIPKNTLFLQMTSLRSEDTAMYYCARSSGTGAMDYWGQGTSVTVSS VL: DIQMTQSTSSLSASLGDRVSISCRASQDISNYLNWYQQKPDGAVKLLIYYTSRLHSGVPSRFSGSGSGTDYSLTISNLDQEDIATYFCQQGNTLPWTFGGGTKLELK	21.6 MFI	17.8 MFI	17.2 MFI	19.6 MFI	17.2 MFI	20.8 MFI	28.3 MFI	19.7 MFI	588 MFI	18.8 MFI	–	–	–	–	–	–	–	–	–
ch2-H1-D7-E5-D5 (antibody, V domains shown) VH: EVHLVESGGGLVQPGGSRKLSCAASGFTFSSFGMHWVRQPPEKGLEWVAYISSGSSSIYYADTVKGRFTISRDNPKNTLFLQMTSLRSEDTAMYYCARGTGTGAMDYWGQGTSVTVSS VL: DIQMTQTTSSLSASLGDRVTISCRTSQDISNYLNWYQQKPDGTVKLLIYYTSKLHSGVPSRFSGSGSGTDYSLTISNLDQEDIATYFCQQGNTLPWTFGGGTKLEIK	–	–	–	–	–	–	–	–	–	–	no binding	7.34 nM	39.6%	27.9%	325 pg/mL	10.3 fold	no binding (tested: up to 66.67 nM)	1.6 nM	38300 MFI
ch10-H9-E3-G3 (antibody, V domains shown) VH: EVQRVESGGGLVQPGGSRKLSCAASGFTFSSFGMHWVRQAPEKGLEWVAYISSGSSAMYYADTVKGRFTISRDNPKNTLFLQMTSLRSEDTAMYYCARSDGKGAMDYWGQGTSVTVSS VL: DIQMTQTTSSLSASLGDRVTISCRASQDISNYLNWYQQKPDGTVKLLVYYTSRLHSGVPSRFSGSGSGTDYSLTISNLEQEDIATYFCQQGNTLPWTFGGGTKLEIK	–	–	–	–	–	–	–	–	–	–	no binding	–	16.6%	13.7%	389 pg/mL	12.3 fold	no binding (tested: up to 66.67 nM)	1.41 nM	45200 MFI
42-C8-A12-F3-D11 (antibody, V domains shown, mouse monoclonal hybridoma antibody) VH: EVHLVESGGDLVKPGGSLKLSCAASGFTFSSHGMSWVRQTPDKRLEWVATISSGGIYTYHPDSVKGRFSISRDNAKKTLYLQMSSLKSEDTGIYYCTRGQVGNWYFDVWGAGTTVTVSS VL: DIVITQSPAIMSASPGEKVTINCSASSSVSYMHWFQQTPGTSPKLWIYSTSNLASGVPARFSGSGSGTFYSLTISRMEAEDAATYYCQQRSSYPLTFGAGTKLELK	27.3 MFI	28.1 MFI	24.5 MFI	27.2 MFI	27.9 MFI	29.6 MFI	34.5 MFI	602 MFI	1290 MFI	22.2 MFI	–	–	–	–	–	–	–	–	–
25-G9-G4-C12 (antibody, V domains shown, mouse monoclonal hybridoma antibody) VH: EVQLVESGGDLVKPGGSLKLSCAASGFTFSSHGMSWVRQTPDKRLEWVATINSGGYYTYYPDSVKGRFTISRDNAKNTLYLQMSSLKSEDTAMYYCARGQLGNWYFDVWGAGTTVTVSS VL: DIVMTQSPAIMSASPGEKVTITCSASSSVSYMHWFQQKPGTSPKLWIYSTSNLASGVPARFSGSGSGTSYSLTISRMEAEDAATYYCQQRSSYPLTFGAGTKLELK	24.3 MFI	21.7 MFI	18.6 MFI	22.7 MFI	25.3 MFI	26 MFI	32.8 MFI	25.2 MFI	383 MFI	22.9 MFI	–	–	–	–	–	–	–	–	–
